# Test results from PMC9927256, “Structural and Functional Characterization of Rv0792c from Mycobacterium tuberculosis: Identifying Small Molecule Inhibitor against HutC Protein” (Microbiology Spectrum, 2022).
# Positions count from the first letter of the chain named.
# Legend:
# [1] = biological target: T1, Rv0792c G80D G80D (Mycobacterium tuberculosis) (UniProt O86331); experiment: ALISA (plate-immobilized protein)
# T1 sequence: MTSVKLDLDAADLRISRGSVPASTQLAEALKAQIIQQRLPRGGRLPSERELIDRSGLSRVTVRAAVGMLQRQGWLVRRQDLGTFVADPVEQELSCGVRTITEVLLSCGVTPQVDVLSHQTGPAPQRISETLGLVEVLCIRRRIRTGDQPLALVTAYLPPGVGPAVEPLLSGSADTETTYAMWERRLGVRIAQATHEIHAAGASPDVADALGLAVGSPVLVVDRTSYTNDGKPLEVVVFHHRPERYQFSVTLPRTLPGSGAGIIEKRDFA
# [2] = biological target: T2, Rv0792c R49A R49A (Mycobacterium tuberculosis) (UniProt O86331); experiment: ALISA (plate-immobilized protein)
# T2 sequence: T1 sequence with R49A, D80G
sequence,measurement,setting,value
TCTAGTCATTCGTCATAATCCCATCTGTTTCTTCCTCCTTCCGT [Rv0792c_2 aptamer (also Rv0729c_2)],Kd,[1],120 nM
same,Kd,[2],74 nM
